Laboratory results from publication PMC3386190, “The Rhoptry Proteins ROP18 and ROP5 Mediate Toxoplasma gondii Evasion of the Murine, But Not the Human, Interferon-Gamma Response” (PLoS Pathogens, 2012).

Target: the molecule itself
Experiment: dynamic light scattering; 20 µM Irga6 with 10 mM GTP at 37°C in 50 mM Tris/5 mM MgCl2/2 mM DTT, in the presence or absence of 40 µM (His6)-MBP-tagged ROP5-CIII or (His6)-MBP; mean hydrodynamic radius over 35 minutes

B1: Recombinant Irga6 (residues 1-413) (natural protein)
chain: MGQLFSSPKSDENNDLPSSFTGYFKKFNTGRKIISQEILNLIELRMRKGNIQLTNSAISDALKEIDSSVLNVAVTGETGSGKSSFINTLRGIGNEEEGAAKTGVVEVTMERHPYKHPNIPNVVFWDLPGIGSTNFPPNTYLEKMKFYEYDFFIIISATRFKKNDIDIAKAISMMKKEFYFVRTKVDSDITNEADGKPQTFDKEKVLQDIRLNCVNTFRENGIAEPPIFLLSNKNVCHYDFPVLMDKLISDLPIYKRHNFMVSLPNITDSVIEKKRQFLKQRIWLEGFAADLVNIIPSLTFLLDSDLETLKKSMKFYRTVFGVDETSLQRLARDWEIEVDQVEAMIKSPAVFKPTDEETIQERLSRYIQEFCLANGYLLPKNSFLKEIFYLKYYFLDMVTEDAKTLLKEICLRN
notes: immunity-related GTPase Irga6, mouse, residues 1-413; a TEV cleavage site stands between the tags and the protein; source: recombinant (Lim et al., submitted)
binding result: binds
